Test results taken from the DeepSol protein solubility set.

test: soluble on expression in E. coli; label from the status in PepcDB or PDB records

Sequence | soluble on expression in E. coli
MGSDKIHHHHHHMVVDGPRDPRMNMAIDEAILRVGAAPTLRIYMWLPGGLTLGRRQSVEDVNLAEAEKRGYVLVRRPTGGAALLHPWEREITYSLVLDSRHPYYSLDVAESAATIAGGVALALEELGIATRVGGYTPPPGVIGGLCYVRPGSSDVVVAGRKVSGSAQRRIGGRLLQHGTLLLRFDPEEWLSIIPVKGAGPSDLASRIAGIEDLAGRSYSFSEVADALVKGFSKALGLEPEPSGLEGREVEEALRLYRKKYSSPRWNLEGDEP | not soluble
MVNFVAKDIYTKDSIQRGGQDVIIEKHEIQIDQITSGKVNIFTFYRNRKQIDDHFLRLQEPSLTANYFFHFHFDAESLHLLQKEFPSVYPYDGSETIHDWTEKMKAELQHQIQTGKWNKRVRIGNRILDVVFTWCDEDIVE | not soluble
MTEFESTEDQKPTMLASLDHLSLRNWASPFEEASTPPTASDDSFQSSSEDNLSLRNWAPLSPNPETVKSAKSLRNYSTNPLIPSYICDLCESPKTSELRVAYDAATFQTTYSYSIIWDVEMNDVEHYRKVMETVSKSSANSSRSSFGYFFEARPGMCRLLRTLHNYATDTSQASLADYMIELSGRAPSPVVVKCGHYLCTACFDIVKNADGTYGCSSQQCYWKGSSRQESKKNYENDICRKQRAKALGMKDLGIDVKPASSASSNPIKETSDSSSETNCSLSSGPVSFNHTMLNSLTPVAEHSVAIMMVLVEPLEVYGIVHSYVEMSFPLDTNLAKALGVMLHRKKKILGDYVANGKLYFGFVNDDEKIGMRRIKSNYYDSLMVAEIPKFDDRVVLIFDVGDYVARGFKIYLK | not soluble
MDTSLIRELAELALAGSGQHCHEEALCIAEWLERLGQDEAARLIRISSLANQGRYQEALAFAHGNPWPALEPWFALCEWHLGLGAALDRRLAGLGGSSDPALADFAAGMRAQVRT | soluble
MGSDKIHHHHHHMYLKGDFHIHTNASDGKYTPEKVLELAKTAGINILAITDHDTTSSVKKAIAVGNELGIKVLPGIELSTLKNGESIHILGYFRDISYENKDFQNFLTEMQNYRVWRAKKIVENLDTYFNIKLDYASILKEASNVIARPHIARAILAKGYNYTYEYIFNNILNKESPAYIPNKKVSVEEGIKLLKAANAVVVLAHPVLIKKTPIEDFLKLDFDGIEAIYPMNSESDTERFLSLAKIYNKLVTAGSDFHTDDSSDTKHGRIGEIYLDENNIDILLSK | not soluble
MNIQEKFKAIRKQRKLSLRDLANVAGSTSSISDFEKGKTNLSNDVLLQLLGFMVVEINEIFEWSAFQDAEFLELMTQVENALQTQDITVLIQKRETLQEFFVAKNHYIYHIISLVLDVIISKLQEKEPTPEIISELTDYFFSLDYWTNLDVGLLGNIVHHFTTETLVLFTDSILKNTPNQLRNNLDRIKIDTVINCLSVLLARREKNASQELLQLLSRKQFPTYFTYEKLCISEFKAIYMYIWCDKEEADNIHQTILKTVSLLFTKDEANKWDDYFKEIISSADIKK | not soluble
SESVHPGNHNLDTLSHSQISKEEETFPSHQLYTFQAPWLVYGLAWCNRVNSPYSLALSSFIESCNNKIILVELNDKTEDFQQVVQVDHPYPASKVAFIPDYSGTRPQLLATSGDALRIWEWSNDNLKSKALLSTNPESEYCAPLTSFDWCEVNPATLCTSSVDTTCTIWDVETQQAKTQLIAHDKEVYDVAFQTGTDKIFASAGADASVRCFDLRNLETSTILYEIPDDSTPILRIGWNKKEPNYMAALVMDSSKFLLLDIRVPSLPVAEMEHKLTNHKRHKSVNAIHWAPHSSSHICSAGDDCYTLIWDISAIPRPIEEPILSYQSDREVNNLQWSAADPDWIAIAAGNKMQILRV | soluble
GSHMAEPQRHKILCVCCKCDGRIELTVESSAEDLRTLQQLFLSTLSFVCPWCATNQ | soluble
MRAEDLFNDPKSYKRWYELHSKLYENERNVVRSFNLKDCLDVGSGPDIFHEEIGGRIVALDISLLMLKESKSDEKVLADALHLPFRDNSFKCVFSSVTVCFIEDVKGFIREMARITKERAIICFIARDSPWGEYYENLGKSGHKYYSHARFISRREFYVIINDFMKISRIRSTLKKMSETEIDGVYNDDSGSFICVEAIPMKPEPLSLSLNRHSGADPADPIS | not soluble
MSIKQWPEGERPREKLLERGAAALSDAELLAILLRVGTRGMSAVDLARYLLQEFGSLGRLMSAEVGKLSAYKGMGTASFTQFAVVREIGRRILAEELQESIVLSDPDTVADYLRFHLGQEKVEVSVALLLNRQNQLIAVRELSRGTVAENTIYIREIVKLALDEYADSLIIAHNHPGGSPEPSQEDIMFTRRLAQAMSLVDVSLLDHFIVTSQSVCSFRQLGLMP | not soluble
MGSDKIHHHHHHMQILFFMKIIRDPIHGYIEVEDFVLQIISTEIFQRLRHITQTGLAYLVYPGMRHTRFEHSLGVMHLAKELTRYIKINSEQYTDLDFINEEYLKLVGLSGLLHDIGHLPFSHTFENALSLAKEVYGIDVEYYGKKTHVIFGNRVIDYYLGNYLDKLSKNYDVVNFVQRVISSTPRTKEESLASLIISSPLDADRGDYLLRDSYFAGVGYGNFDIERIKRSLIYVNGKLAVLKKAIPVVEQFLLARMYMYETIYFHSVVGLYNAVLSHAVVKLIQKNLIPNVAPENYLKLNDVVIMSKLNEAGREFFDAIVYRKGFKRYKKDLTGNCYETLEKKRKEINEIMRENNGLILYHDFYDVPYSEDEIFVYDDDELKPLSTESKIVSSLTIIKKGIVGYHESAEDKMKKIYEILQECPL | not soluble
KARLIYNPTSGQEIMKKNVAEVLDILEGFGYETSAFQTTPTKNSARDEATRAAQAGFDLIVAAGGDGTINEVVNGIAPLKRRPKMAIIPTGTTNDFARALKIPRGNPIEATKLIGKNQIVKMDIGQAQED | not soluble
MGSDKIHHHHHHMKNFVTSERSIFEMEKSTEPAIRVKDGSVVKIKTKDHFNGQIHAKQLHYGELDWKQFSPTTGPIYIEEARPGDLLAITIEKIELLGTEVFLLNGPNIGITDDLLTSNSTRCYKVENNQIIYSEDIHIPIRKTIGLLKTEELNPSKVPTKNGGLLDSSKITEGATIFLPVEKYGASLHVGNVRATTGFGKITATSAEAPAEVTLRLQILKNRTAPTPTIIHYHNLICLASDITIEKATQKTMHNMITLLTESDKMTTEDALFLISLQADFQVCKLCKPNITTSIKLPLDYFPEMPFL | not soluble
MTATQGKCPVMHGGATTVNISTAEWWPKALNLDILSQHDRKTNPMGPDFNYQEEVQKLDAALKQDLQALMTDSQDWWPADWGHYGGLMIRLTWHAAGTYRIADGRGGAGTGNQRFAPLNSWPDNTNLDKARRLLWPIKQKYGNKLSWADLIAYAGTIAYESMGLKTFGFAFGREDIWHPEKDIYWGPEKEWFPPSTNPNSRYTGDRELENPLAAVTMGLIYVNPEGVDGNPDPLKTAHDVRVTFARMAMNDEETVALTAGGHTVGKCHGNGNAALLGPEPEGADVEDQGLGWINKTQSGIGRNAVTSGLEGAWTPHPTQWDNGYFAVCSLNYDWELKKNPAGAWQWEPINPREEDLPVDVEDPSIRRNLVMTDADMAMKMDPEYRKISERFYQDPAYFADVFARAWFKLTHRDMGPKARYIGPDVPQEDLIWQDPIPAGNRNYDVQAVKDRIAASGLSISELVSTAWDSARTYRNSDKRGGANGARIRLAPQKDWEGNEPDRLPKVLAVLEGISAATGATVADVIVLAGNVGVEQKARAAGVEIVLPFAPGRGDATAEQTDTESFAVLEPIHDAIATGSSRTMRQRLKNCCLIATQLLGLTAPEMTVLIGGLRVLGTNHGGTKHVVFTDREGVLTNDFFVNLTDMNYLWKPAGKNLYEICDRKTNQVKWTATRVDLVFGSNSILRAYSELYAQDDNKEKFVRDFVAAWTKVMNADRFDLD | soluble
RYNGLTLRSVFQPIFDKQHQVVGAEALVRIFTQHHTQIRPDLFFHSETFADDDKLNVERLSRAIHIRNFSLSPYRDTRLFLNVLPVAGEQFAYCDISSTLLATRLAELNIPHHRVVMELVEIESGDEGMLQMATEKLVANGFQIAIDDFGCKASTPERVAMLRPNIIKLDRQLLLDFMAGDCCGLLAGVQLAQKTGAHTVVEGIETAEQLAAMQKLDINMYQGYYLALPEGIAQTAKVANAN | not soluble
